This series is described as follows: label from the status in PepcDB records.

In the case of “MLAELFAVMAPVLFGAGVGYVWVRLGHAYPTEFVSRIVFNIGSPCLILATLAHTRVDLHSFGRMALASALICVCMAALGWAAARLGRQEWQVLVPAYSFPNVGNMGLPVCLYAFGEAGMTLAVAFYLIMSIGNFSLGVFWMSGERSWRSLLGNPILLSVLLALLLMGLDLQLPRWMANTVDLMAGLTIPLMLITLGVSLASIRPRQLGNGFFYGGLRLLLGALVGWSVALALQLPPLAQGVLVVQSSMPVAVFNYLYALRGNRSPDQVASLVLCSTLLSFAFIPLLLTWWLPALR”, the protein production entry was “failed”.

On to “MLCACSGEQFRFEDQPGSPESLATRDFSASGLSSRNGGGDWDSKLEDIQVDEAESTLKEALSLNYEEARALLGRLEYQRGNFDAALQVFKGIDIKVLTPRIIKAIVEKTLPCKPRSKAVIVPPTTMSMHSVSLLLEAILLKARSLEELGSYKEAAEECKIILDVVENALPSGMPDGISGFAKLQDIFQKALELLPLLWKKAGNHHETIASYRRALSRPWNLDPQRLAVTQKSLALVLLYGSVEACPKDNIEEAIVLLMLLVKKMVVGDIQWDPELMDHLTYALSMTGQFEVLANYLEQTLPGVYTRGERWYLLSLCYSAAGIDKAAINLLKMALGPSESRQIPHIPLLLFGAKLCSKDPKHSRDGINFAHRLLDLGNSQSEHLLSQAHKFLGVCYGNAARSSKLDSERVFLQKKSLFSLNEAAKRGKADPELDVIFNLSVENAVQRNVQAALDGAVEYSSMVGGVSTKGWKHLAIVLSAEKRLKDAESILDFTMEEAGDIEKIELLRLKAVLQMAQEQPKKAMKTCSSLLGLIRAQEKSEQSESLLQKFETEAWQDLASVYGKLGSWSDAETCLEKARSMCYYSPRGWNETGLCLEAKSLHEEALISFFLSLSIEPDHVPSIVSIAEVMMKSGDESLPTAKSFLMNALRLDPRNHDAWMKLGHVAKKQGLSQQAAEFYQAAYELELSAPVQSFI”, for which the protein production entry is given as “failed”.

As to “MLCLHAPSRCEAAPAFPHTYSHYSEQEQLTALLADFGRTQGLATSFSPGVTGTVSGRFEDVAPEKFLQGMKAAFGVSWYRLGPTLHFYHEAETTRIFISPRVMSAESLYRMLRQSSVLSPQLPAELMPGGAMVVVSGPPAYLDQIQAAVTAFEEAQTGNFGMKVFPLKYAWAEDITVNSMDKTVTLPGVASILRAMVSGSPSSATRVTQETATVDKLSGTGLISQGRQQKESGQSNQAQRGGQASQQDSGGAQDGQQVSIMADPRVNAVIVHDAVYRMPYYESVIGDLDRPVELVEIHAAIVDIDTNFKRDLGVTYQATVGKDQRWAGGADVSTGTDKFTPLPVPGVPQGSGLTLSTIYTMGSDYFLARINALEKNGEARMLGRPSVLTVDNVQATLENTSTYYIQVQGYQAVDLFKVEAGTVLRVTPHIINNDDGTDAIKLVVSVQDDQNNQTTPTSTSTTQAIPPIKQTKINTQAIIGAGQSLLIGGYYYEQKATSADGVPILMNIPVLGNLFKTQSKENKRMERLILITPKVVRLDNLPGTPPRVDDPAFHRTATQSDYAERTPTPPPSRRSGCSRAPDNAPEAASGAAGGTGGTGVTANTEGGTTPQAATSPVPAYGVAP”, the protein production entry is reported as “failed”.

Turning to “MLDASPATARSPLEKRRPNVCREEQLTLVRLSRPCAQAFIDTIQFWKQGCSGPRWCVGYERRIRYYIIYRHVYATEHQTVFRCCPGWIQWDDEPGCFSSLSSLGTHFSGRECSYQDTRQCLCSQGFHGPHCQYDINECAVDNGGCRDRCCNTIGSYYCRCQAGQKLEEDGRGCEDVDECAVVNGGCQQRCINTLGTFHCECDTGYRRHADERTCIRIELEIVNICEKNNGGCSHHCEPAIGGAHCSCNHGHQLDTDGKTCIALDEQLEEEEEEIDILRFPGRLAQNPPQPFPYLDPSLTASYEDEDNDDADSEAEGEVQGLTALYRVVCLDGTFGLDCSLSCEDCMNGGRCQEGKSGCLCPAEWTGLICNESSVLRTGEDQQAPAGCLKGFFGKNCKRKCHCANNVHCHRVYGACMCDLGRYGRFCHLSCPRGAYGASCSLECQCVEENTLECSAKNGSCTCKSGYQGNRCQEGTIR”, the protein production result is recorded as “failed”.

Regarding “MLDISFGEFVLIGVVALVVLGPERLPTVARTVGALVARAQRFVANVKADMQQQANLQGLDSLRQDLQDAAHSFRGQLEAEVQQVRDAIDQNAADARALAEQAAEPFHEAERTIHGGLAPDAEAEAREAETHPAEPAPAAQADVPPRDENQLDLFDDLPPHRPPASQPSASQARE”, the protein production result is recorded as “failed”.

For “MLDKLTVWIENHLAGPMAKIANQRHLRAVRDGIIATLPLIIVGSFFLIIAFPPLPESWGITQFLTSNAATILLPYRMTMYIMALYATFGIGASLAKSYNLDQVSGGILATIAFLLTLVPVAIPEEASKAAGVSGFVLPMANLGGAGMFVGIVTSIIAVEIYRVTDKSKFKITMPDNVPPAVARSFESLTPTLIVMLLIGSITYYLGFDWHTFVGNLVGPLVQAADSLLSVLLLVFLTTFFWFFGIHGASIVGSLARPLWLQLLEENTTAKAAGEALPRIAAEPFYQWFIWIGGAGATIGLAILLAFRAKSEYGSKLGKAILAPSIFNINEPVIFGVPIVLNPILMIPFIFAPMVLATIAWFATKLGLVSEVVFTAPWTLPGPIGAFMATGGDWRAAVLNIVLILVAILIYYPFFVAYDKNELAKEQGKQIEE”, the protein production result was “failed”.

As for “MLDNLQLTDILATVAVLVSITFLIYFAGKTLITANSFQKGVSLYQQKDYPGAEAAFRKVIAINSTNDVVRLFLGDVLREQGKVAEATELFQEVINRSPKNPQGYLRLATILMQQEKQAEAKTNLQKAQELLQKQRQPETAKRVAKLLEQMNTKTI”, the protein production result was “failed”.

Regarding “MLDTYGRKYVNPIIDLGANTLLKLRLTPNGVSIIALIIGVLSSVFLYFDKLILSVVFLWISGYLDSVDGAMARKKNLTSPFGTLLDITFDRIVELSIIFVLALKFQNSRLYLLILTMMILISMTIFLTVGALAQNNGMKSFRYQAGLAERSEGFICFSLMILLSSIKLNLVTNIFSLIIFITIIQRALEAKRLLK”, the protein production entry was “failed”.

Regarding “MLEAAQGAPASSGRRTRRPGLSEEVLRAYAYACAFCGYDGMLGRNPVGLEAAHIRWHSQDGPDTLANALALCALHHILFGLGVLGLSPGLRIQVSPLYVARSHAGHAVGILHRRPLAPPRPGHPSPGPEHIHWHHQQVFKHAPTPVAR”, the protein production entry was “failed”.

Regarding “MLEACTKCGTCAEACTMYLGSGRKKIYSPVYRSDMLRKIYKKHFTLTGKLFGPLIGAKDPTEDDINALAESAYRCTVCRRCALACPFGLDNGLITRETRKIFADLGILEHHHHHH”, the protein production result is listed as “failed”.

Regarding “MLEGIYLALDKMFGPMLRNTHPMWVVTVSGVILGAFFVLLNYFLVDQEKMKRLQKMAKELQEEFKKARESGDEKKLRKLQQKQLELLRLQNELMKDAFLKPMLITWPIIIIFWGWLKRWYFETAIVKYPFNFFLFDIFHKMYHSALKPDELGYFGWYFLTSYVVGTILRKVLDMA”, the protein production entry is on record as “failed”.

“MLEGQLEAGEPKEGTHPEDPCPGAGAAMEKTPAAAEVPREDSNAGEMPSLQQQITSLHQELGRQQSLWADIHRKLQSHMDALRKQNRELREELRGLQRQQWEAGKKPAASPHAGRESHTLALEPAFGKISPLSADEETTPKYAGRKSQSATLLGQRWSSNHLAPPKVTLRAYRL”: the protein production result is reported as “failed”.

“MLEGVARPSLLRRLSCAPGMPAPVRRLAERIEGSHLATRLAEGAFWSFAGSALSRAFALAASVVTARFLGKAQYGELGVLLSTLLTFQAFASLGLGMTATKYVSELRTKDPERAGRILGMSAVLSAATGVLAAALLWAFAPWLASSTIGAPHLTEPLRIAGLGLVFTTMGGAQTGALAGFEAFRTQTQLNVWLGLLGVPIAVVGVWRWGLQGAVWATVVTAALQWALTHVAVRVHARRDRVPVSPRGWWREQRILWTFSLPALAQGVMVGPVSWAAAAILVNQPGGYPEMGAFSAANQWYAAVLFLPNALCGPVLPVLSERVGRGDGPGVRAVLRAAVAMNAAAVIPIVAAGCLASPWLVRIYGPQFADAWPTFAVVLITAGIVAITNPVGYVLAASERLWLGFLMNSGWAAAFLVATVLLVGWGSLGLATGRLLAYALHFGWTLWFAMRFVRAGAARGT”: the protein production entry was “failed”.

With “MLEIMLMVCIGALAAVMANLGIAVFNDGIRPIVPENLEGRMTRKELGVTAFAMSFGLVIGFGIPISIAGSIILIHSILLGSDIIGLALDRGKVKTTIAAIIGGLYGAGIYMGLQVVVDLFTMLPLNFVDAFNKVGDPVVVSFMVFPAIAIALQFGVKKGIIAFAIAAFARQLIVFTNGAELIKIGSTPVVLSPEGIALVVGMFLLIFFAMREKSEETNLSTLATLFTDRVARIKKHRWILMLSGGLVAAATNLLLIAGDPISLNLLAEGKMSEGGIAALAKAIGFVPLIASTAIATGVYGPIGFTFVFAAGIFAPNLGIALLIGALIIFLEIQLLTKLATFLDRYPGIRASGENIRTAMSRVLEVALLIGGANAADAIVPGFGFFAIAGFYLINEIAGRPIVRMAIGPVGAIIVGIVGNLLVLLGLYTP”, the protein production entry is on record as “failed”.

Regarding “MLELFLKEEWTTEAKEILRPFGQKKLIGIQMGASNRSRQWFVERWIELAKRIIERDEEVVIVFVGSKNELEEISLVAQALPQDRVFISAGRLSLGAAAALIGELGLLFTPDTGPLHIAVALRVKTISLFAVANPKNSLPDYDQSLHRYIKVDRCCEPCVGKRCAYQKCMEAIGVDEVYEEYKKLQELEHHHHHH”, the protein production entry is listed as “not failed”.

Regarding “MLELKNENLTVQFSELGGQIISIKDKDGIEYLWQGEPTYWSGQAPVLFPICGSLRNDWAIYEPAERPTFTGTIPRHGLVRKMLFKNVKSTENSLEFSISSNEETVKNYPFEFELSINYSLFGKTIRIEYRVKNLEGHRKLPYFIGGHPGFNCPLLDGESYEDYYLEFEKVESCTVPRSFPETGLLDLRDRRPFLENQKTLDLSYKLFEYDAITLDQLASRKVTLKSKNHQKKLSIAFDDFPYLVIWSTTNQSPFIALEPWSGLSTSLEESDIFNAKRNISYVAPKEVDTKYFDIIIE”, the protein production entry is “failed”.

On to “MLELNAKTTALVVIDLQEGILPFAGGPHTADEVVNRAGKLAAKFRASGQPVFLVRVGWSADYAEALKQPVDAPSPAKVLPENWWQHPAALGATDSDIEIIKRQWGAFYGTDLELQLRRRGIDTIVLCGISTNIGVESTARNAWELGFNLVIAEDACSAASAEQHNNSINHIYPRIARVRSVEEILNAL”, for which the protein production result is “not failed”.

As for “MLEMIYFAVVAIVGFFFYRKMNGKPMFGFKKKGKSQGGVEKRTAEKNGKKNKKNTPATEEIDEDNVDFFSAFVEDIKEVENHMIRYHDDTFVLIAEAHPVNYYLLSNAEQEAIDIKIESWLTTLEFNTKVYIQSKFVDLTDPVRKMTETMKGAKDLTPETVLYGQEVIDNLEYWQRSQPRYEQKRYLIYPYKVDISTITADTEEELEEKIVDKAFNELYRRYNASRNLLSKAKISVEMLTKDKLIELLYVAFNRRKAVKARFQDLIENENFSLYSTGETNERKLELMKKVLAEEKAEKSNNGVA”, the protein production result is given as “failed”.

For “MLEQGTISIHTENIFPIIKKSLYSDHQIFLRELVSNAVDAIQKLKMVSRAGEYAGVVDEPEIQLAIDKDKKTLSITDNGIGMTAEEVKKYINQVAFSSAEEFIHKYQGKSDQPIIGHFGLGFYSSFMVAQKVEIDTLSYQEGAQAVHWSCDGSPEFTLEESSRTTIGTTITLTLLPDEEEYLESARVKNLVKTYCDFMPVPIKLDGEVLNRQKAPWRESPSNLTKEDYLEFYRYLYPFQEEPLLWVHLNTDYPFIINGILYFPKMRPDVDVTKGQIKLFCNQVFVSDNCEEIIPQFLVPMRGVIDSTDIPLNVSRSALQGDRTVRKIGDYIAKKVGDRLKELYRDDREQYISAWKDLSTFVKFGVLNDEKFKKQVEDIIIFRSTVKWEQPAETPAVEVQSQEGDVWQDITPSPDSPTPGLPYTTLKEYLERNKERHENRVFYSTDEATQATYIELHKNQGLEVLFLDSFIDTHFINFLEQEYQDVKFTRVDSDLDNTLLEQDKAGEIVDPTTNKTKSEIIKELFEKSLNKPKVNIRTEALKSDDPQGTPPAIVLLPEFLRRMREMTAMMQQQNADFPEDHILLVNTAHPLIQNLVNLNQGAIIQGDGESTTNPLVNLICQHVYDLALMSQKGFDAEGMKSFVERSNDVLTKLTQQAKN”, the protein production entry is reported as “failed”.
